In patent publication US20230241257A1, “BIOTIN-MODIFIED DIMER AND USE THEREOF” (THE UNIVERSITY OF TOKYO, priority 2020, published 2023):

T1: Recombinant Human CEACAM-5/CD66e Protein, CF (R & D SYSTEMS) (human, UniProt P06731 35-685)
T1 construct: Bought recombinant protein, immobilized on a CM5 chip by amine coupling (279 RU); also called carcinoembryonic antigen
T1 sequence (looked up): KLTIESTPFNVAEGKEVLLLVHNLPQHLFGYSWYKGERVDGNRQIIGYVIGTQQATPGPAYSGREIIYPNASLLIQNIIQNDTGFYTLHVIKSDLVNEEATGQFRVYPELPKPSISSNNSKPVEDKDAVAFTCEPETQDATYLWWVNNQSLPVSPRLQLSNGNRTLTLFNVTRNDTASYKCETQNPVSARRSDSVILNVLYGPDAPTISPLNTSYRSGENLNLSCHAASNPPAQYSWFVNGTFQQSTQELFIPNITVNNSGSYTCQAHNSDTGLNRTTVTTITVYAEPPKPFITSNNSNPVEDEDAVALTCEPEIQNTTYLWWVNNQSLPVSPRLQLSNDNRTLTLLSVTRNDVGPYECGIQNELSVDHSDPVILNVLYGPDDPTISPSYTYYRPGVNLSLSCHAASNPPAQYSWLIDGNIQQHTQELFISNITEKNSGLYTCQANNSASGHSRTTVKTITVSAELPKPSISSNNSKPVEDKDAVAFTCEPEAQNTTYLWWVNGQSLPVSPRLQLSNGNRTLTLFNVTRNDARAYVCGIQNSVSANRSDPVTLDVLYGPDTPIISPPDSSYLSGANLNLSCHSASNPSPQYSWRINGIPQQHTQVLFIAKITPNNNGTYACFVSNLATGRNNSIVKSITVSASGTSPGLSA

T2: Recombinant Human CEACAM-5/CD66e Protein (Homo sapiens, UniProt P06731)
T2 construct: purchased R & D SYSTEMS
T2 sequence (P06731 35-676): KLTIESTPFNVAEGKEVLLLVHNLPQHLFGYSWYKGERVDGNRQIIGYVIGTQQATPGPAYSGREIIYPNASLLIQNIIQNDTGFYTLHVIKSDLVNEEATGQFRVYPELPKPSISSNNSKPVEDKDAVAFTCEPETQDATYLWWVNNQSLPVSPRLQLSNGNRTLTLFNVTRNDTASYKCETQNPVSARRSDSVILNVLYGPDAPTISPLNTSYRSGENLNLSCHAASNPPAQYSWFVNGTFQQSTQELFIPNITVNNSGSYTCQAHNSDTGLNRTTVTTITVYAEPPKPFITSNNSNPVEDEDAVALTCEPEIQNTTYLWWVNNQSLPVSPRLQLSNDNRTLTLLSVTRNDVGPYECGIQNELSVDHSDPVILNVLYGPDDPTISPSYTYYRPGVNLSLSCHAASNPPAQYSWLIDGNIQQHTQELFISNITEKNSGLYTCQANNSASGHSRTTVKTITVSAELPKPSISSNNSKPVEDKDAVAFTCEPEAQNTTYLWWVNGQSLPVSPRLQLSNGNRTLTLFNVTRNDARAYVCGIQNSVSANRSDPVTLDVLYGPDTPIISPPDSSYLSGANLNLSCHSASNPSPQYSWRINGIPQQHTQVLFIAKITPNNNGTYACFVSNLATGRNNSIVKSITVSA


How the values were obtained:
[1] = target: T1, Recombinant Human CEACAM-5/CD66e …; experiment: SPR, Biacore T200, CEACAM5 immobilized on CM5, CEA-V2122 as analyte, single-cycle kinetics, bivalent analysis fit (KD = kd1/ka1)
Procedure: (§1) The affinity of CEA-V2122 for the antigen CEACAM5 was evaluated using a surface plasmon resonance (SPR) measuring device, Biacore T200 (GE Healthcare Life Sciences). Specifically, Recombinant Human CEACAM-5/CD66e Protein, CF (R & D SYSTEMS) was immobilized on Sensor Chip CM5 (GE Healthcare Life Sciences) using an amine-coupling kit (GE Healthcare Life Sciences). The final amount of the ligand immobilized was 279 RU. Moreover, about the purified CEA-V2122, two-fold serial dilutions from 1E-08 M to 6.25E-10 M were prepared as analytes. Regarding interaction analysis, data were obtained by single-cycle kinetics analysis.

[2] = target: T2, Recombinant Human CEACAM-5/CD66e Protein; experiment: SPR affinity of CEA-V2122 for the antigen CEACAM5 (Biacore T200); type: binding
Procedure: as §1, with “analysis. Using Biacore T200 Evaluation Software, version 2.0, the obtained data were subjected to curve fitting in a bivalent analysis mode, and the following values were obtained: ka1=3.208E+5, and kd1=3.461E−7.” for “analysis.”

[3] = single-cycle kinetics, bivalent analysis mode

Row | Kd [1] | KD=kd1/ka1 ([2]; bivalent analysis) | ka1 [2, 3] | kd1 [2, 3] | Molecule
1 | 1.08 pM | – | – | – | CEA-V2122 protein (scFv-type anti-CEACAM5 antibody fused to mutant streptavidin V2122 via the linker GGGGSGGGG) (scFv, It was secreted and purified from the culture supernatant through the His tag and Protein L. The purified product is mainly a tetramer of about 150 kDa; also called Cupid-scFv antibody; CEA-Cupid) scFv: QVKLEQSGAEVVKPGASVKLSCKASGFNIKDSYMHWLRQGPGQRLEWIGWIDPENGDTEYAPKFQGKATFTTDTSANTAYLGLSSLRPEDTAVYYCNEGTPTGPYYFDYWGQGTLVTVSSGGGGSGGGGSGGGGSENVLTQSPSSMSVSVGDRVNIACSASSSVPYMHWLQQKPGKSPKLLIYLTSNLASGVPSRFSGSGSGTDYSLTISSVQPEDAATYYCQQRSSYPLTFGGGTKLEIKGGGGSGGGGAEAGITGTWSDQLGDTFIVTAGADGALTGTYENAVGGAESRYVLTGRYDSAPATDGSGTALGWTVAWKNNSKNAHSATTWSGQYVGGADAKINTQWLLTSGTTNANAWKSTLVGHDTFTKVKPSAASHHHHHH
2 | – | 1.078E−12 | 3.208E+5 | 3.461E−7 | CEA-V2122: scFv-type anti-CEACAM5 antibody bound to mutant streptavidin V2122 via amino acid linker GGGGSGGGG (SEQ ID NO: 3) (protein) scFv: QVKLEQSGAEVVKPGASVKLSCKASGFNIKDSYMHWLRQGPGQRLEWIGWIDPENGDTEYAPKFQGKATFTTDTSANTAYLGLSSLRPEDTAVYYCNEGTPTGPYYFDYWGQGTLVTVSSGGGGSGGGGSGGGGSENVLTQSPSSMSVSVGDRVNIACSASSSVPYMHWLQQKPGKSPKLLIYLTSNLASGVPSRFSGSGSGTDYSLTISSVQPEDAATYYCQQRSSYPLTFGGGTKLEIKGGGGSGGGGAEAGITGTWSDQLGDTFIVTAGADGALTGTYENAVGGAESRYVLTGRYDSAPATDGSGTALGWTVAWKNNSKNAHSATTWSGQYVGGADAKINTQWLLTSGTTNANAWKSTLVGHDTFTKVKPSAASHHHHHH
